Reference: the domain aggregation screens of Martell et al. (2025)

Experiment: soluble fraction after stress (log2 fold change); higher = more stays soluble; pooled small domains, quantitative proteomics
Settings: stress: 75 degC
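Also: 20 min heating vs room temperature control held 20 min.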

Sequence | soluble fraction (log2)
HMAVPMTPGELVGSRVRVLWWKDGRGEVVALARGHQATLPARSEEPLRTGADAVVLEADEGTLVVTS | -0.13
HMAVSGRMMVYEYIRQQMREGSLLPGSVLDLPAISHKLGISNTPLRDSLIRLEAEGYLTIYPRSKVVIN | -3.03
HMAVTGRVDLRIKPWGYVSVDGAAKVSSPPTMQLKLAPGRHEIEITNPAGAAVTKTVDVIAGKSVTVQHN | -0.0874
HMAVTKVKVITESSNLNIRKGPGTDQPIVGKAAHHEIITLVNKSNDQWWLVRTNDGEEGYSYSRYLEPVT | -0.667
HMAVVEVATTTATEYKVEKGHHFKVGDFVMFKTGAKSYAITAIDTTSPIFDKITVGTTLGEAIPVGGTLM | -1.62
HMAVVIPDVKGMTIEEAAPFLAEKGIRYNIIDSVFSKDVDPGAIVEIVPTPGSKVKEGRIVFVTINAK | -0.774
HMAVVQMVDRPGGLDELLKDVVRAGVNFANAYGRTASDGNSAFFVIDIQDIPGARQKLADVGLQILADEAV | -0.383
HMAWAVDVGVVGLFPGKAVLVIDGGAPRTVPVGANVGGVRLLAVDQGSATVEIGGKRQRLAIGQHAH | -1.69
HMAWIGEHTVTSEDTLSHIALKFYGHATPPYYKLIYEANKAIIGDNMNIIVPGQVLRIPALPEEL | -1.35
HMAYLTVPAVIAKDTKKSIQLLESKGFEVVIQDSIYTDTLARGTVIKQLPDPNATVKINRTVYLTVNRYTP | -2.41
HMAYQQITIKANVVNVRQGPGLSYDVMSQANKGETMNVISQKNNWYQVRLSGDKIGWVASWLVDNT | -3.08
HMAYWVVKNNQVSLQINRSNYQITSTARALSNGNLGDEIDVKVLQSGVIKKAVVIGKGQVELLR | -3.24
HMDAHIGTLTPRERETLHHLAIGHSNKVIAKKLNLAESTVKAYVQSILRKLGLSSRVQAAVYAIQHDIR | -0.702
HMDAIDPKTVTSWADLWKPEYKSSLLLTDDAREVFQMALRKLGYSGNTTDPKEIEAAYNELKKLMPNVAAF | -0.193
HMDAIDQDGNHMTFKRWGEQLQEAFQALEAYDTDKAKTILNELIKFPIDSDLNNALKGILSNIDEMMA | -0.914
HMDAINITTYKGQITLTGTKTGTLVGIYNTAGMLVKSMMSKGEKLYFDNLPSGVYIIKVGEEEPRKVQVI | -2.16
HMDAKIEYTMSDLIENRLINSDDASMRREKLSEILKIGYGNGKKTLHKLNSFGITREEFEEAMKEVNSH | 0.0731
HMDAKIKDYADAYAKMDPQQAASLFNNMTTGSLDLVAKILENIPANKRAAILEKMDVNAAAQVTEKMR | -0.0156
HMDAKSRFQEWVQAETGITPTYRIIGDSGPDHAKTFIAQVLLGERVVGEGVGSSKRAAEQAAAQAALAAM | -0.0803
HMDAMMQRLERLKELASSADGSKDYLILGPLRRDLAKLMALEDPKLRQGAEELDRKILAILS | -0.477
HMDAPHPSVVQVYFESRDRSWTYYNDRFDLHEGDLVYVEGKLEGVRGRVVEVSYNFRIKLADYKRVIAVA | -3.29
HMDASSAVQFGSLLRDARRRQGLSQAELGGDKYSGSYISHLESGRRVATPEVIEFLSRRLGVSPLEWGVS | -0.0146
HMDASSTGFLGKHVQIVGLVSQPHLNGRRGVASRFDSNRRRYLVRLDEIDGHAEVVAFRPDNLVLSNLL | -0.627
HMDASVTIEQVERMVQANVSDDVIISQLQGRGAAQNLSTDDIINLTQKGISAEVIKAYQSAG | 0.111
HMDAVLMEYDRLLALELTEDPDVYQDLLDKVREQSLGADGRVTDKYREKFDAVATRFDDYEDNYQW | -0.113
HMDAVQAGKRVLIVDDLIATGGTAKAATDLIEKAGGTVVGFSFVMRLDGLDGLDKLDGKPSSSLIAMP | 0.193

Sequence | soluble fraction (log2)
HMDAYMGEAKDEETFAEEYLNDSGLLNEIPESVARYFDIVAYARDLLIGDFSLHDGHVFNMT | 0.358
HMDDAFLNKEMLKQALENLNEREKKLIYLRFYEGLTQKEIADRLSLSQMHVSRLLNESLNKLRRKI | -0.44
HMDDATDLPYQEFRTQVSDGQVKIAQFNNNTGKITFESISGDKFKTSGPLELSSDDERLFLENIEDFKFFT | 0.0939
HMDDATDVPYQEFRTQVTSGQVEIAQFNNNTGKISFQSTSGEKFETSGPLELSSDDERLFLENIEDFKFFT | 0.416
HMDDATIKVNIAAKFLNAGNNLFVDIDTTVLEGRVLLTGLVDTQEVRIDAVRLVWEVEGIREVINEIEIG | -5.19
HMDDATTQLADRLLDLRRKAGYSQEQLADLLGVSRQAISKWEGAQGRPEVDNVVKLAQIYRVSTDFILTGS | -0.698
HMDDAVSHPDAGHIVTVTKVSADGTAEVMYRGASWRAKTADGSPLTAGSARIVRVDGAALVVEP | 0.0931
HMDDDDPDQEIAQYYEKLRAMNPDEETKQKLSDEINKLSKMMYSSQEAMVSRNYLDTVFSLPWHQF | -0.146
HMDDEELDALKGIPANEYTQEQIKQISEVFHTLQKNEVKDWLNSLQLRNIELPFELRNEVFSQ | 0.211
HMDDFPLKRGSKGNRVTLLQNALVKKYGAGILPKYGVDGMFGKEVEAALVHAKIPTTINEANYTKIV | -0.0514
HMDDFSETLLQYIKEKGGHISLNDKTDAGVIYETFGVSKKTFKKAVGDLYKKRLIVLEDTGIRL | -0.501
HMDDHLSFLAARLPDGASFDTDFDALGIDSFGMIALRAEVEERLGEQIADSDWTKVERPSEILAMLERK | -0.204
HMDDLATAYKAMGVDASISDKDLKRAYRKLMSQHHPDKMIAKGVPADMVAMATEKTQEIQAAYDLIERSR | 0.203
HMDDLIIQIELKQEGLEITGLKVLLKEDSVIDEQVKQTIRRKIERFLVNLYGNPNVYVSKFSMGI | -0.296
HMDDLTTASIKQQLKALIDEENKNKPLSDQKLTDALKAQGIDISRRTVAKYREAMNIPGSSKRKRF | -0.0771
HMDDMVLEIGPGIGTMTQYLAEAAGKVVAVEIDRNLLPILQETLADYDNVKVIHADVLSLDLEKLVQEE | -0.0859
HMDDPDALITDSQLKAIHVLLGKLKIDDNLKHAYIADVLQLKDIPETLKTLTKHQGSTIIERLNLLIKDA | -0.0192
HMDDPLSQLTPREREVLELMASGASNQGIADALVITVRAVEKYVSSIFGKLGLPSTGSESRRVLAVLTFLR | -0.178
HMDDPYAGLRQRAYLFLRERDGAVPEEELIEHVFGSSGNPALWRPLLRQVLGADDRLDLRADGYWALRG | -0.187
HMDDSPTARALRTLDLIHNRPGITAAELADRLGVTERAVRRYVLTLRDAGVPVLGTPGRYGGYQVGK | -0.818
HMDDSVTFSEFVRMVDSGQVESVRITGNEVTGSDSTGNTFRTFVPPQYEGLVNRLVERDVAVTAEE | 0.149
HMDDSVVFSLNAKGIRLTGAGKYGEAIALFDKAIAAKPGLSGLYFNRAEARRLSGDLPGARSDLEQALAI | -0.416
HMDDTRLELTLLGKIHNDEEINKQSHINVNIKNGVILLTGESPRREITERILTLARTFEHTRQIVNQIAT | 0.0479
HMDDVIDVYATYDKSAEGVLSNIQLFSNQKKTTPITPESGKIYIDVEGNYQFRWTGTQYATV | 0.15
HMDDYRSLRGQEKAAIFLMSLSQEQAAKIFANLDDEEIKEISQAMSSLGTVGSEIIERLFVEFAEQVSS | -1.21
HMDEARLAVASNLIRLRTDAGMTQAELGEKLNYSDKTISKWERAEAIPDAFVLKQIGELFHVSVDFLLRTH | -2.28

Sequence | soluble fraction (log2)
HMDEDTWKLYKRAYKKYYARYMKGNMSEEAFKTWAAQAARDRDAAIEQVKAALDENLKAQVIERLKEELNR | -0.831
HMDEEEKGEVEVPNLIGLTRKEAKKTLEEEGLLIETKESLKTNLDDEYEKIKSQLPKAGIKIKQGSTVYVD | 0.154
HMDEGQEHYVKETDLPFYSEADPASSVIFPLVLNQKLIEKERKDDWIRALEPTTGLVGWVLLKSLSPQQLS | -0.0643
HMDEIELLLQDAIQKLPEKQRMVFTLRYYDNLPYEEISKILDMSVSTLKTNYHYAKSKIEQYILDHS | -1.64
HMDEKPPHEALSNREFQVLQLLAQGRSVGQIAQQLTLSANTISTYRARIFDKLGLHNPADLFSYAARHRLT | -1.19
HMDELNFGNFEGTRIFVQRTARKKSIALSIRDGTIVILAPRHIPNQEIQELITTNTDWIRAKLSQHAETKR | -3.21
HMDELVYVPNITGKTVEEARTELQKRDLGLNIAGHQFSDEFGKGRIISQDPAAGSRLKVNRSISVIVSSGQ | 0.0849
HMDENVVLRKVAREAFVIEYVRGIRAIDPGIGGPKLWLMYKREFGDNDTVGRDTFEDILDRNNLKVRI | -4.06
HMDEPADVAIFDGFRQMSEDELKKLYESLNLAMTFKDFLHIQNYFKNEENREPSVTEIRVLDTYWSDH | 0.0441
HMDEPVDRLSPREQEVLALMAEGRSNAAIAHRLSITEKAVAKHINSIFTKLDLPLDEDDHRRVRAVLAWLR | -1.33
HMDESIPVITYKDSVYANPKAFADAHKLPYKSLHNALSKARKEGKVRFMYKQYNFHLDNNGYIVAVS | -1.22
HMDESLLDYALREIKARIQNGTYPPGTKLSTQEISDSLGISRTPVVAAINRLVAQGVAEAIPRRGTIVAR | -0.19
HMDETFTITFDPNGGTLNGSKTKTVSLGDIVYGKLPTASKTGYSFIGWFTEKEGGEQISSATKIIASDLTL | 0.0518
HMDETPESIFAKANELYPKYIKYFYTEQEYYSKVEEYINLYEFQKNSTYILGKDLEEFLEEYITNKQ | -1.61
HMDEWDDGDKPKLKITLYADDDYYFASGFSKSSVSLSGSDGTVTSVSRSSSDTLIVYVTLDALD | 0.033
HMDEYILTLDEVKELLKSKDYDDLKNVLKWSNKFQKDTIIQTAISEKVSDANVINIIKEITGQDITSLIV | -0.0278
HMDEYTREQFVADMEEGRVREVTIHPNSEVPTGYIRVELANGADMKLYVTDIVEAEELVRSYGFDPPVRDV | 0.212
HMDFDFHALGREIKRKRKDKGWTQEYLAQLLDRTPRSIMYMENRGQHPSLNILFKIATLLEISIDQFFF | -0.114
HMDFDQELFDKIVEATMDEARAAMDTDDKNVREERWNKLIEHWHELFLEDYPEMDKYLEEITYKFQKNPAT | -0.662
HMDFEVGTVKWFNTKKGYGFITRDQGEDIFVHFRNIKGQGRRSLSDGERVSFVVTHGDKGLQADQVSP | -1.25
HMDFFTAAPEEDEIGKRIDVYIAEYKEELSRSRVQKLIENGLVTVNGKAVKSNYKLRKGDILEVEIPDPE | -0.0998
HMDFGPDSAAPLADGSAPEGFDVKGNADSMLYHEPDGRWYDATVAEVWFRTAEAAQAAGFTKAGS | -0.119
HMDFNNQLKRIRESNGLTQEQLAKILNVSRQSISSWEVGRNFPDLEMIVIISKEFNISLDQLIMG | -3.02
HMDFQTDVFISRFAELKKESGETNKDLQDVFELSLSALINYQTGKRIPDIAFLHKLAQHFGVSADYLLGLS | -0.277
